From patent publication US20250368742A1 (D2M BIOTHERAPEUTICS, published 2025) come the findings set out here.

B4: MICA008-ECD-HISAvi (ligand)
chain: EPHSLRYNLTVLSWDGSVQSGFLAEVHLDGQPFLRYDRQKCRAKPQGQWAEDVLGNKTWDRETRDLTGNGKDLRMTLAHIKDQKEGLHSLQEIRVCEIHEDNSTRSSQHFYYDGELFLSQNLETEEWTVPQSSRAQTLAMNVRNFLKEDAMKTKTHYHAMHADCLQELRRYLESGVVLRRTVPPMVNVTRSEASEGNITVTCRASSFYPRNIILTWRQDGVSLSHDTQQWGDVLPDGNGTYQTWVATRICRGEEQRFTCYMEHSGNHSTHPVPSGKVLVLQSHWQHHHHHHGLNDIFEAQKIEWHE
notes: Two sources under one name in the two kinetic assays; also called MICA008 polypeptide
B7: MICB005-ECD-HISAvi (ligand)
chain: EPHSLRYNLMVLSQDGSVQSGFLAEGHLDGQPFLRYDRQKRRAKPQGQWAEDVLGAKTWDTETEDLTENGQDLRRTLTHIKDQKGGLHSLQEIRVCEIHEDSSTRGSRHFYYDGELFLSQNLETQESTVPQSSRAQTLAMNVTNFWKEDAMKTKTHYRAMQADCLQKLQRYLKSGVAIRRTVPPMVNVTCSEVSEGNITVTCRASSFYPRNITLTWRQDGVSLSHNTQQWGDVLPDGNGTYQTWVATRIRQGEEQRFTCYMEHSGNHGTHPVPSGKALVLQSQRTDHHHHHHGLNDIFEAQKIEWHE
notes: Two sources under one name in the two kinetic assays; also called MICB005 polypeptide

Where two headings read alike, the source gives them in different places.

Assay [1] concerns the target T1, MICA002-ECD-HISAvi (human, UniProt Q29983 24-308).
T1 construct: also called MICA002 polypeptide
T1 chain: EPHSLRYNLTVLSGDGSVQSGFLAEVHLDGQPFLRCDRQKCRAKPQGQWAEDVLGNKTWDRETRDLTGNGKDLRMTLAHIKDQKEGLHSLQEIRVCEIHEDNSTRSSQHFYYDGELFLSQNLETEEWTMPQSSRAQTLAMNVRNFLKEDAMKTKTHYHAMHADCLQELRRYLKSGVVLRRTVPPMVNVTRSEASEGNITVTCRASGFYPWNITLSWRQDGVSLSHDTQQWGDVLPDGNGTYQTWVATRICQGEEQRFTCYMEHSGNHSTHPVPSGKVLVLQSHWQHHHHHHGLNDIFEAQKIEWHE
The assay can be described thus: BLI (GatorPrime); antibody on anti-hIgG Fc probe, monomeric antigen in solution.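 Further: binding kinetics of anti-MICA/B antibodies measured by biolayer interferometry, with dissociation followed for about 10 min.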
Description: (§1) The binding kinetics of the antibodies were also measured using the GatorPrime BLI (Biolayer Interferometry) system (Gator Bio, USA). Specifically, the anti-MICA/B antibodies were loaded with HFC (Anti-hIgG Fc, Gator Bio, Cat #: 160003). […] The dissociation kinetics were monitored for approximately 10 minutes. The probes were regenerated between binding cycles with Regeneration Buffer (Gator Bio, Cat #: 120012). Binding kinetics were analyzed using software supplied by the manufacturer.

In assay [2] the target is T2, MICA004-ECD-HISAvi (human).
T2 construct: also called MICA004 polypeptide
T2 chain: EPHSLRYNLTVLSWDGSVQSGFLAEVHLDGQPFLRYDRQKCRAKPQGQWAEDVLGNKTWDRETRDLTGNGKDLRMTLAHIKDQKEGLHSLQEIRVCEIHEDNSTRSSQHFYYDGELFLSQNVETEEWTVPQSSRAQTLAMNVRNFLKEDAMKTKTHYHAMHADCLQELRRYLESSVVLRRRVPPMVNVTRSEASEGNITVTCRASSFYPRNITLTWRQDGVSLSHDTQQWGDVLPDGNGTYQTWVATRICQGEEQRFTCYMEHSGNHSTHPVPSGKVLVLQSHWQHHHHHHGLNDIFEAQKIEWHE
The assay is described as above.
Description: as §1

For assay [3], the target named is B4. The description is as above.
Description: as §1
Assay [4] addresses B7. The description is as above.
Description: as §1
In assay [5] the target is T3, human MICA002 on cells (human).
T3 chain: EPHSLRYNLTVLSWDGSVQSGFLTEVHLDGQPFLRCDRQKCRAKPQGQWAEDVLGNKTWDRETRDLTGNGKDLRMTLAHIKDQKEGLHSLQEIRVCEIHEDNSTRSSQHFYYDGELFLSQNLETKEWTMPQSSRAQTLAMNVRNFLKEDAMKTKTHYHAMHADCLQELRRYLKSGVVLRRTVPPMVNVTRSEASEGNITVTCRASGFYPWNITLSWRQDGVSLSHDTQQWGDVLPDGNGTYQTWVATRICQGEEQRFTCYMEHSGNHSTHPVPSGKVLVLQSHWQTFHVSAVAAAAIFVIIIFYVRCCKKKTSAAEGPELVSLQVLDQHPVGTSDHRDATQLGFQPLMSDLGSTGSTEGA
The assay can be described thus: flow cytometry, CHO-MICA002 cells. A general note: A flow cytometer gives signals particle by particle.
Description: CHO-MICA002 cells were incubated with titrated anti-MICA/B antibodies and then APC-labeled anti-human Fc antibody. […] The antibody binding signals of APC (gMFI) to MICA/B were measured by flow cytometry.
(§2) After an incubation time of 30 minutes, the plate was centrifuged and cells were washed with PBS three times. […] After mixing for 30 minutes at room temperature, cells were washed with PBS twice. Fluorescent signal was detected and quantified by flow cytometry (Attune™ CytPix™, ThermoFisher) within the population of live cells (viability dye PI negative).

Assay [6] deals with T4, human MICA004 on cells (human).
T4 construct: whole, on cells; also called CHO-MICA004; C1R-MICA004
T4 sequence (Q29983 whole entry): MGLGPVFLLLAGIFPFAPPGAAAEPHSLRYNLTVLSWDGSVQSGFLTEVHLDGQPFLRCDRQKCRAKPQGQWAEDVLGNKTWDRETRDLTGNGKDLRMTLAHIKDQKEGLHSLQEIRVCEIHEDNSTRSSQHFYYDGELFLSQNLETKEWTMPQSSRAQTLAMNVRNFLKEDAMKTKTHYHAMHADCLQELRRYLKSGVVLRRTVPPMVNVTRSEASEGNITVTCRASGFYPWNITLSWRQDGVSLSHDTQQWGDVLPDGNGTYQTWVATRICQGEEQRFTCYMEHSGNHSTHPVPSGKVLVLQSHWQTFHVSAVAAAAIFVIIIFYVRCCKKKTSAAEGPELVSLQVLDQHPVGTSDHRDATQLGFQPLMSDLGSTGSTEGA
The assay can be described thus: flow cytometry, CHO-MICA004 cells.
Description: (§3) IgG1 is an isotype control (IgG). The antibody binding signals of APC (gMFI) to MICA/B were measured by flow cytometry.
as §2

Assay [7] deals with T5, human MICA008 on cells (human).
T5 construct: whole, on cells; also called CHO-MICA008; C1R-MICA008
T5 sequence (Q29983 whole entry): as above
The assay is described as follows: flow cytometry, CHO-MICA008 cells.
Description: as §3, §2

Assay [8] deals with T6, human MICB005 on cells (human).
T6 construct: whole, on cells; also called CHO-MICB005; C1R-MICB005
The assay is described as follows: flow cytometry, CHO-MICB005 cells.
Description: as §3, §2

Assay [9] concerns the target T5, human MICA008 on cells. The assay can be described thus: flow cytometry, HeLa cells (MICA008).
Description: as §3, §2
Assay [10] deals with T7, MICA009Avi (human).
T7 construct: extracellular domain
The assay is described as follows: BLI (GatorPrime); antibody on anti-hIgG Fc probe, monomeric antigen in solution.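 Further: binding kinetics of anti-MICA/B antibodies measured by biolayer interferometry, with dissociation followed for about 10 min.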
Description: as §1

For assay [11], the target named is T8, Cynomolgus monkey MICA (cynoMICA) (Cynomolgus monkey (Macaca fascicularis)).
T8 construct: also called cyno monkey MICA; cyno MIC protein
The assay is described as above.
Description: as §1

In assay [12] the target is T1, MICA002-ECD-HISAvi. The assay can be described thus: SPR (Carterra); antibody captured by anti-human Fc, monomeric ECD antigen injected.
Description: (§4) The dissociation kinetics were monitored for approximately 10 minutes. The chip surface was regenerated between binding cycles with 10 mM glycine HCl, pH 1.7. Binding kinetics were analyzed using software supplied by the manufacturer.
Assay [13] deals with T2, MICA004-ECD-HISAvi. The assay is described as above.
Description: as §4
The target of assay [14] is B4. The description is as above.
Description: as §4
In assay [15] the target is B7. The description is as above.
Description: as §4
Assay [16] deals with T1, MICA002-ECD-HISAvi. The assay is described as above.
Description: as §4
For assay [17], the target named is T2, MICA004-ECD-HISAvi. The assay is described as above.
Description: as §4
In assay [18] the target is B4. Described as above.
Description: as §4
Assay [19] concerns the target B7. Described as above. This is another data set of the same source.
Description: as §4
The target of assay [20] is T3, human MICA002 on cells. The assay can be described thus: flow cytometry, CHO-MICA002 cells.
Assay [21] has as its target T9, NKG2D-His (UniProt P26718 78-216, limits assumed).
T9 sequence (looked up): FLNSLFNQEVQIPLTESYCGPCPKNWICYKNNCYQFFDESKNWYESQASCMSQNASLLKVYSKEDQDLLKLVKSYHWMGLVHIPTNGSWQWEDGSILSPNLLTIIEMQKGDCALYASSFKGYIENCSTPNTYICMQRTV
The assay can be described thus: ELISA: NKG2D-His coated, MICA/B-ECD titrated, detection 1D5 + anti-hFc-HRP. In general terms: An ELISA detects its analyte on a solid surface through an enzyme-linked reagent.

Assay [22] has as its target T3, human MICA002 on cells. The assay can be described thus: flow cytometry, CHO-MICA002 cells.

B1: CM33322 (antibody, human IgG1, kappa)
heavy: not shown
light: DIVMTQTPLSSPVTLGQPASISCRSSQSLVHRDGNTYLSWFLQRPGQAPRLLIYRISNRFSGVPDRFSGSGAGTDFTLKISRVEAEDVGVYYCMQATQIPNTFGQGTKLEIKRTVAAPSVFIFPPSDEQLKSGTASVVCLLNNFYPREAKVQWKVDNALQSGNSQESVTEQDSKDSTYSLSSTLTLSKADYEKHKVYACEVTHQGLSSPVTKSFNRGEC
On to B1, for which the binding result in [1], in assay [2], in [3] and in assay [4] was “no binding” in each case.

B2: 13A9 (antibody, human IgG1, kappa, V domains shown)
VH: QVQLQQSGAELVRPGTSVKVSCKASGYAFTNYLIEWVKQRPGQGLEWIGAINPGSGATNYNEKFKDKARLTADKSSNTAYLQFSSLTSDDSAVYFCARFLGNYFDNWGQGATLTVSS
VL: DIQMTQSPASLSASVGETVTITCRASGNIHSYLAWYQQKQGKSPQLLVYYAETLADGVPSRFSGRGSGTQYSLKINSLQPEDFGSYFCQQFWTTPYTFGGGTKVEIKR
As a reminder, the EC50 is the midpoint of the concentration-response curve. For orientation: Kd means a measure of binding affinity in units of concentration. As for B2, the EC50 in assay [5] was found to be 3.56 µg/mL; in assay [6], 7.25 µg/mL; in [7], 2.08 µg/mL; in assay [8], 1.71 µg/mL; in assay [9], 4.09 µg/mL. For the same molecule, the Kd came out at 0.0956 nM in [1]; 1.39 nM in assay [2]; 0.504 nM in assay [3]; 0.425 nM in assay [4]; 0.262 nM in assay [10]; 13.9 nM in [11]. Also, the Kd in [12] was found to be 1.67 nM; in assay [13], 5.02 nM; in assay [14] it was 23.2 nM; in assay [15] it was 4.38 nM; in [16] it was 0.313 nM; in assay [17], 12.8 nM. The Kd came to 1 nM in assay [18] and 0.486 nM in assay [19].

B3: h36B3GS (antibody, V domains shown)
VH: QVQLVQSGAEVKKPGASVKVSCKASGYAFTKYNFYWVRQAPGQGLEWIGYIDPYFGGTVYNQKFKGKATLTVDKSTSTAYMELRSLRSDDTAVYYCATTDSYSLFTYWGQGTLVTVSS
VL: DIQMTQSPSSLSASVGDRVTITCRASQDISNYLNWYQQTPGKAVKLLIYYTSRLHSGVPSRFSGSGSGTDYTLTISSLQPEDIATYFCLQGNTLPFTFGQGTKLEIK
notes: humanized #36 variant; the text writes h36B3(GS); copies: 2 + 2
In turn, B3 showed a half-maximal effective concentration (EC50) in assay [20] of 0.6 µg/mL.

The term EC50 (read off the curve) denotes the midpoint of the concentration-response curve. Consider B4, for which the “EC50 (read off the curve)” value in assay [21] is about 0.1 µg/mL.

B5: D2M001-003 (antibody, V domains shown)
VH: QVQLVQSGAEVKKPGSSVKVSCKASGYAFHDYLIEWVRQAPGQGLEWIGGINPGSGSTNYAQKFQGRATLTADKSTSTAYMELSSLRSEDTAVYYCARLDGNYVGYWGQGTLVTVSS
VL: DIQMTQSPSSLSASVGDRVTITCRASGNIHNYLAWYQQKPGKSPKLLVYHAKTLQSGVPSRFSGSGSGTDYTLTISSLQPEDVATYYCQHFWSTPRTFGGGTKVEIK
notes: only the CDRs are tied to the name in the text; copies: 2 + 2
Take B5: the 50% effective concentration (EC50) in [22] came out at 3.59 µg/mL.

B6: D2M001-004 (antibody, V domains shown)
VH: QVQLVQSGAEVKKPGSSVKVSCKASGYAFVDYLIEWVRQAPGQGLEWIGGVNPGSGSTNYAQKFQGRATLTADKSTSTAYMELSSLRSEDTAVYYCARLEGNYVGYWGQGTLVTVSS
VL: DIQMTQSPSSLSASVGDRVTITCRASGNIHNYLAWYQQKPGKSPKLLVYHAKTLQSGVPSRFSGSGSGTDYTLTISSLQPEDVATYYCQHFWSTPRTFGGGTKVEIK
notes: as for B5
In assay [22], B6 had an EC50 of 4.2 µg/mL.

On to B7, for which the concentration for a half-maximal effect (EC50 (read off the curve)) in [21] was about 0.02 µg/mL.
